This is an account of results in PMC10022743.

B1: HA–YKT6-WT (full-length, siRNA-resistant) [human] / SNAP29 [human (endogenous in HEK293T)] (parent)
chain 1: MKLYSLSVLYKGEAKVVLLKAAYDVSSFSFFQRSSVQEFMTFTSQLIVERSSKGTRASVKEQDYLCHVYVRNDSLAGVVIADNEYPSRVAFTLLEKVLDEFSKQVDRIDWPVGSPATIHYPALDGHLSRYQNPREADPMTKVQAELDETKIILHNTMESLLERGEKLDDLVSKSEVLGTQSKAFYKTARKQNSCCAIM
chain 2: MSAYPKSYNPFDDDGEDEGARPAPWRDARDLPDGPDAPADRQQYLRQEVLRRAEATAASTSRSLALMYESEKVGVASSEELARQRGVLERTEKMVDKMDQDLKISQKHINSIKSVFGGLVNYFKSKPVETPPEQNGTLTSQPNNRLKEAISTSKEQEAKYQASHPNLRKLDDTDPVPRGAGSAMSTDAYPKNPHLRAYHQKIDSNLDELSMGLGRLKDIALGMQTEIEEQDDILDRLTTKVDKLDVNIKSTERKVRQL

In the assay the parent is B1. The assay can be described thus: immunoprecipitation followed by mass spectrometry. Conditions: with SNAP29 [human (endogenous in HEK293T)], 2 h EBSS and 300 nM Torin 1, read off a plot.
Where [1] appears, read: YKT6 siRNA-treated HEK293T WT cells.

Consider chain 1 MKLYSLSVLYKGEAKVVLLKAAYDVSSFSFFQRSSVQEFMTFTSQLIVERSSKGTRASVKEQDYLCHVYVRNDSLAGVVIADNEYPSRVAFTLLEKVLDEFSKQVDRIDWPVGSPATIHYPALDGHLSRYQNPREADPMTKVQAELDETKIILHNEMESLLERGEKLDDLVSKSEVLGTQSKAFYKTARKQNSCCAIM [chain 1 T156E], for which the screen value (HEK293T WT cells) was -2.3 log2 and the screen value under setting [1] was -2.3 log2.

With chain 1 MKLYSLSVLYKGEAKVVLLKAAYDVSSFSFFQRSSVQEFMTFTSQLIVERSSKGTRASVKEQDYLCHVYVRNDSLAGVVIADNEYPSRVAFTLLEKVLDEFSKQVDRIDWPVGSPATIHYPALDGHLSRYQNPREADPMTKVQAELDETKIILHNAMESLLERGEKLDDLVSKSEVLGTQSKAFYKTARKQNSCCAIM [chain 1 T156A], the screen value came out at 2 log2 (HEK293T WT cells) and 2 log2 under setting [1].
